We go through two molecules from US20100080800A1 (AC IMMUNE S A, published 2010).

Assay [1] addresses T1, soluble polymeric amyloid beta (UniProt P05067 672-713).
T1 construct: also called Oligomer; polymeric soluble amyloid
The experiment in a line: ELISA on plates coated with the amyloid preparation (55 µg/ml), AP-labelled anti-mouse IgG. As to the method:
In order to evaluate the specificity of mC2 to different stages of polymerized amyloid protein, monomeric, polymeric soluble and fibrillic amyloid, an ELISA coated with these different stages of polymeric beta-amyloid was performed (FIG. 9). Monomers were prepared according to a modified method published by (Klein, 2002), soluble polymeric amyloid beta according to (Barghorn et al., 2005), whereas fibers were performed by incubation of amyloid (Bachem, Switzerland) with a final concentration of 1 μg/μl in Tris/HCl pH 7.4 at 37° C. for 5 days followed by a centrifugation step (10,000 rpm for 5 minutes). Then amyloid polymers were coated on an ELISA plates with a final concentration of 55 μg/ml and binding affinity ELISA by using an anti-mouse IgG monoclonal antibody (Jackson) labelled with alkaline phosphate was performed.

Assay [2] deals with Amyloid Beta (antigen of the Amyloid Beta ELISA) (UniProt P05067 672-713, limits assumed). The experiment in a line: Amyloid Beta ELISA, antibody purified from NS0 cells. In general terms: ELISA stands for enzyme-linked immunosorbent assay.
Amyloid Beta (antigen of the Amyloid Beta ELISA), sequence (P05067 672-713 limits assumed): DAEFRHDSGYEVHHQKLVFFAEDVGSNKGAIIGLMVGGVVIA

T1 sequence (P05067 672-713): as the sequence (P05067 672-713 limits assumed) above

B1: mouse monoclonal antibody ACI-01-Ab7C2 (antibody, V domains shown)
VH: EVQLVESGGGLVQPGGSLKLSCAASGFTFSSYGMSWVRQTPDKRLELVASINSNGGSTYYPDSVKGRFTISRDNAKNTLYLQMSSLKSEDTAMYYCASGDYWGQGSTLTVSS
VL: DVVMTQTPLSLPVSLGDQASISCRSSQSLVYSNGDTYLHWYLQKPGQSPKLLIYKVSNRFSGVPDRFSGSGSGTDFTLKISRVEAEDLGVYFCSQSTHVPWTFGGGTKLEIK
notes: Mouse IgG2b/kappa from hybridoma FP-12H3-C2 (DSM ACC2750); also called mC2; Mouse ACI-01-Ab-7-C2
In the case of B1, the “EC50 (read off the curve)” value in assay [1] was ~0.4 µg/mL.

B2: C2HuVH4/HuVK2 humanized antibody (antibody, human IgG4 S228P, kappa, V domains shown)
VH: EVQLVESGGGLVQPGGSLRLSCAASGFTFSSYGMSWVRQAPGKGLELVASINSNGGSTYYPDSVKGRFTISRDNAKNSLYLQMNSLRAEDTAVYYCASGDYWGQGTTVTVSS
VL: DIVMTQSPLSLPVTPGEPASISCRSSQSLVYSNGDTYLHWYLQKPGQSPQLLIYKVSNRFSGVPDRFSGSGSGTDFTLKISRVEAEDVGVYFCSQSTHVPWTFGQGTKVEIKR
notes: also called C2HuVHAF4 with C2HuVK2
As for B2, the “EC50 (read off the curve)” value in assay [2] is ~4 ng/well.
